Phagocytosis of DiI-labelled A20 tumor cells by bone marrow-derived macrophages data for one substance are collected here from patent US20260007703A1.

This test has as its target CD47 on A20 murine lymphoma cells (mouse) (UniProt Q61735). Kind of test: cell-based or functional assay.
UniProt Q61735, sequence (Q61735 19-303): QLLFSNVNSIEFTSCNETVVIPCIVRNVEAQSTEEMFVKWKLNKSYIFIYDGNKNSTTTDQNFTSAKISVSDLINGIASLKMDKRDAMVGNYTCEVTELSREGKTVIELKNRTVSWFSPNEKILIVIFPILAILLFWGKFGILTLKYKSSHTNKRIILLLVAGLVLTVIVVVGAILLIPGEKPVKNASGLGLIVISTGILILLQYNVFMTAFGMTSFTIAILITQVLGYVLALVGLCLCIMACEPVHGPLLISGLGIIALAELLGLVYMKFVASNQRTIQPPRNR

“FITC-labeled anti-mouse CD47 monoclonal antibody, clone miap301” had a phagocytosis of DiI-labelled A20 tumor cells by bone marrow-derived macrophages of 60 % increase.
